Reference: the RNAGym collection of RNA variant scans (doi:10.1073/pnas.2313332121)
This sample holds only a part of the variants without activity.

B1: TPR 5TU (parent)
chain: GGAUCUUCUCGAUCUAACAAAAAAGACAAAUCUGCCACAAAGCUUGAGAGCAUCUUCGGAUGCAGAGGCGGCAGCCUUCGGUGGCGCGAUAGCGCCAACGUUCUCAACUAUGACACGCAAAACGCGUGCUCCGUUGAAUGGAGUUUAUCAUG

Variants of: B1
Experiment: polymerase ribozyme fitness, log enrichment relative to wild type (log ratio); higher = more active; in vitro selection for triplet polymerase activity
Procedure, shortened: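 Each subunit of a heterodimeric triplet polymerase ribozyme was mutagenized into a library by PCR, transcribed, and subjected to one round of in vitro selection, run in triplicate. Libraries were annealed with a biotinylated primer, the partner subunit and triplets, incubated frozen at −7 °C, and extended constructs were gel-excised, captured on streptavidin beads and recovered by RT-PCR. Input and output libraries were sequenced on Illumina, keeping genotypes with ≥10 input reads and ≥1 read per output. Fitness is log base 2 of genotype enrichment divided by wild-type enrichment, from inverse-variance-weighted replicate averages.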

| Variant | polymerase ribozyme fitness (log ratio) |
| --- | --- |
| A12C U56A G88U | -3.41 |
| C14A A49C C69A | ≤ -4.2 |
| U13G U82A C96U U130A | -3.83 |
| A12G A17C G50C C63G C96U | -0.474 |
| A12U C32A A41C C103U | ≤ -4.2 |
| C14G A23U A52C G84A C118U | ≤ -4.2 |
| U13A C32A G42A C75A C76U C87G A106C A138U G141C | ≤ -4.2 |
| A12C U145C | 0.192 |
| U13G U44A G68C G88A C95A U144A | ≤ -4.2 |
| A12U G59C A89U A91U U101C U144C | ≤ -4.2 |
| U13A C72U U82C | -1.38 |
| U13A A24U G34A G94C G126C | -3.18 |
| C14G C69A C96U C118U | ≤ -4.2 |
| U13G C14A C72U G83A G117U | -2.88 |
| U13A A37C C57A G126U | -1.66 |
| A12U A21G C95U C99A G126A C132U | -3.58 |
| U13C U55A C85A C125U | -1.98 |
| C14G A24G A26G A39C A66C C105U A107U | ≤ -4.2 |
| C14G C54G G71A C99A G100A | ≤ -4.2 |
| C14G C54U C72U | -3.4 |
| A12U A29G A37U A47U U55A G84U A89G A120C G140C U144G | ≤ -4.2 |

| Variant | polymerase ribozyme fitness (log ratio) |
| --- | --- |
| C14G A16C C51U G94U C125U | -3.93 |
| A12U A28G U55A C63U C96G G100A | ≤ -4.2 |
| U13C C51U G59C G92U A115G G143C | -3.61 |
| C14G A22G G94A C118G A150C | ≤ -4.2 |
| A12U U55C A137C | -4.12 |
| U13A A37U C96U G126U | -2.85 |
| A12C C93U A120G | -0.829 |
| A12G A28C C116A A147C | ≤ -4.2 |
| A12U A24G A49C C57U A73G G86U | ≤ -4.2 |
| A12C G58A A66C G88U A110U | ≤ -4.2 |
| A12G U13C C14A A41C A110U A119G G133A G140U U145G | ≤ -4.2 |
| A12U A47U C95U A115G | -2.31 |
| C14A G48C U56A C96A | -3.68 |
| A12G U33A A39C G65A G70C C96G A119U C129A U135G | ≤ -4.2 |
| U13A A24G C27U A39C G50A G84U | ≤ -4.2 |
| U13G C18U C27U C95U | -3.43 |
| C14G A17C U44A G81A C85U C125A | ≤ -4.2 |
| A12G A16G A23U C38U C87U G141C G152A | ≤ -4.2 |
| U13A A47G U82G C95G | -3.73 |
| A12G C36A U55G G71A C96G C116A U134G | ≤ -4.2 |
| C14G C35A G74U G86A A120U | ≤ -4.2 |

| Variant | polymerase ribozyme fitness (log ratio) |
| --- | --- |
| A12G G84C | -1.21 |
| A12C G59C C87A A107G A115U A150U | ≤ -4.2 |
| A12U C105G C118A | -2.62 |
| C14A G59U G94U C125G U134A U151G | ≤ -4.2 |
| C14A A49C G59C G62A A91U G100A C114U A137G U146C | ≤ -4.2 |
| U13C A16G A19C U56A G136U U145G | -3.34 |
| U13G C93A G141U | -4.01 |
| C14A A41C C85A C132U U145A | ≤ -4.2 |
| A12U G126A | -0.204 |
| C14G G34A C85A | ≤ -4.2 |
| U13A A41G C85A A106U | -4.16 |
| A12U A20C C36G A138C | -4.13 |
| A12C U15C C35U G58A U90C G126U | ≤ -4.2 |
| C14A A26U U77G G84U A115C A147G U148G | ≤ -4.2 |
| C14G G50A C54U C93A U139A | ≤ -4.2 |
| A12C C96G C99U | -2.39 |
| U13C G62C C99A U148G | ≤ -4.2 |
| C14G C54U A64G A66C U82G A97G G140U | ≤ -4.2 |
| U13C A41U U55A C96U C118A | -2.88 |
| A12U C38A G59U C87A A97U | ≤ -4.2 |
| A12G A24G A37C C87G A120G U139G | -4.13 |

| Variant | polymerase ribozyme fitness (log ratio) |
| --- | --- |
| A12G A40G A41C G65A C85U A107G C123G G152A | ≤ -4.2 |
| C14A C54U C118U G136U | -4.12 |
| U13G A37U C76G G84U A107U C123U U139G | ≤ -4.2 |
| C14G A47C A60U G65A | ≤ -4.2 |
| U13G G42C A49U G65A G71A G92A | -3.74 |
| A12G A41G | 0.519 |
| A12U C14A C114G A119G | -3.37 |
| C14G A23U G46U A66G G70A A91G C116G C131G | ≤ -4.2 |
| A12U A49U A52C G67A C72A C85A G86C A119U | ≤ -4.2 |
| C14G A19G C43U G86A U104G C108G A122C | ≤ -4.2 |
| A12G C35A G74A U101A A147U | ≤ -4.2 |
| U13A A17U U45C G50A G83C C87U U104G G140A | ≤ -4.2 |
| A12G G59A A66C C79A C108U C116A | ≤ -4.2 |
| U13G C36U A52G G70A G84U | -0.614 |
| C14G A19U C116A | -2.21 |
| U13G G83C C125G G133A U145G | ≤ -4.2 |
| U13A G42C G48C C85A C99G A106G G133U G141C | ≤ -4.2 |
| U13A A41C C43G A60C A138G A150G | ≤ -4.2 |
| U13A A23U U31A A37C G84U C125A G140A G152U | ≤ -4.2 |
| A12U C93G | -3.28 |
| A12G U144A | 1.44 |
